B1: PTTG1IP (pituitary tumor-transforming gene 1 protein-interacting protein): 2NQ (protein)
parent chain: MAPGVARGPTPYWRLRLGGAALLLLLIPVAAAQEPPGAACSQNTNKTCEECLKNVSCLWCNTNKACLDYPVTSVLPPASLCKLSSARWGVCWVNFEALIITMSVVGGTLLLGIAICCCCCCRRKRSRKPDRSEEKAMREREERRIRQEERRAEMKTRHDEIRKKYGLFKEENPYARFENN
B2: PTTG1IP (pituitary tumor-transforming gene 1 protein-interacting protein): N45Q (protein)
parent chain: B1 parent chain
B3: PTTG1IP (pituitary tumor-transforming gene 1 protein-interacting protein): N54Q (protein)
parent chain: B1 parent chain

Key:
Settings in all cases: glycan lost; control: WT PTTG1IP-GFP
[1] = median fluorescence intensity of GFP+ EVs
[2] = single-vesicle analysis, GFP+ EVs in conditioned media
[3] = anti-GFP Western blot of cell lysates
[4] = anti-GFP Western blot of isolated EVs

Protein | localisation or trafficking, percent of wt [1] | localisation_or_trafficking, other: % GFP+ vesicles [2] | expression_or_secretion [3] | localisation_or_trafficking [4]
B1 | 48% | decreases, 27.2 vs 84 | no change | decreases
B2 |  | decreases, 43.6 vs 84 | no change | 
B3 |  | decreases, 45.7 vs 84 | no change | 
